Target: sfGFP-POX10 (superfolder green fluorescent protein POX10 fusion protein)
Experiment: SPR

Substance: PXDN-con4 (human recombinant peroxidasin consisting of the four immunoglobulin domains and the peroxidase domain) (domain or fragment)
- Kd: 74 nM

— paper PMC8390535
